In patent US20210221874A1:

Target: anthrax protective antigen, wild type PA83 (Bacillus anthracis) (UniProt P13423)
Sequence (P13423 30-764): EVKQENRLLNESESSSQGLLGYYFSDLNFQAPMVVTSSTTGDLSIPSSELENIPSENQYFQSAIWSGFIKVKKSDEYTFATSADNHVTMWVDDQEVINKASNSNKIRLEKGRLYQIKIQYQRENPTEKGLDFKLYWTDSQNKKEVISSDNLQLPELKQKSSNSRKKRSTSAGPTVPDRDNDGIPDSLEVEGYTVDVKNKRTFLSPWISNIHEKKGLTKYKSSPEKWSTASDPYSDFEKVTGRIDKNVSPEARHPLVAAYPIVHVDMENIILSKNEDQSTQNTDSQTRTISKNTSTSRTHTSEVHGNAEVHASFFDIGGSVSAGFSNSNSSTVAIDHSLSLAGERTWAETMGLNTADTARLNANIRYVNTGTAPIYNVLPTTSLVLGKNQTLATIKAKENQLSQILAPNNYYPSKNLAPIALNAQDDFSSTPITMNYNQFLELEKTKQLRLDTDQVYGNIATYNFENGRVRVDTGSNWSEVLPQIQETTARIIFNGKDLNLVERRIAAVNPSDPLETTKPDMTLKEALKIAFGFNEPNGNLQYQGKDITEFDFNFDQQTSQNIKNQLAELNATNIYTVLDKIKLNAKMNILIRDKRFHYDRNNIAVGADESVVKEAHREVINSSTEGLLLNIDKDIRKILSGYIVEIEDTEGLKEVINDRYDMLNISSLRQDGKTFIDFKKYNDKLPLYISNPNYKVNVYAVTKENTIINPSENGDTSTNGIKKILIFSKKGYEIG

Q: Which IC50 (read off the curve) does the source give for “neutralizing anti-PA mouse monoclonal antibody 14B7” here?
A: 10 nM
